To fix the notation:
B1: human ULBP1 (ligand)
chain: GWVDTHCLCYDFIITPKSRPEPQWCEVQGLVDERPFLHYDCVNHKAKAFASLGKKVNVTKTWEEQTETLRDVVDFLKGQLLDIQVENLIPIEPLTLQARMSCEHEAHGHGRGSWQFLFNGQKFLLFDSNNRKWTALHPGAKKMTEKWEKNRDVTMFFQKISLGDCKMWLEEFLMYWEQMLDPTKPPSLAPG
B2: human ULBP5 (ligand)
chain: GLADPHSLCYDITVIPKFRPGPRWCAVQGQVDEKTFLHYDCGSKTVTPVSPLGKKLNVTTAWKAQNPVLREVVDILTEQLLDIQLENYIPKEPLTLQARMSCEQKAEGHGSGSWQLSFDGQIFLLFDSENRMWTTVHPGARKMKEKWENDKDMTMSFHYISMGDCTGWLEDFLMGMDSTLEPSAGAPPTMSSG
B3: human ULBP3 (ligand)
chain: DAHSLWYNFTIIHLPRHGQQWCEVQSQVDQKNFLSYDCGSDKVLSMGHLEEQLYATDAWGKQLEMLREVGQRLRLELADTELEDFTPSGPLTLQVRMSCECEADGYIRGSWQFSFDGRKFLLFDSNNRKWTVVHAGARRMKEKWEKDSGLTTFFKMVSMRDCKSWLRDFLMHRKKRLEPTAPPTMAPG
B4: human MICA (MHC class I polypeptide-related sequence A), soluble recombinant (ligand)
chain: EPHSLRYNLTVLSWDGSVQSGFLTEVHLDGQPFLRCDRQKCRAKPQGQWAEDVLGNKTWDRETRDLTGNGKDLRMTLAHIKDQKEGLHSLQEIRVCEIHEDNSTRSSQHFYYDGELFLSQNLETKEWTMPQSSRAQTLAMNVRNFLKEDAMKTKTHYHAMHADCLQELRRYLKSGVVLRRTVPPMVNVTRSEASEGNITVTCRASGFYPWNITLSWRQDGVSLSHDTQQWGDVLPDGNGTYQTWVATRICQGEEQRFTCYMEHSGNHSTHPVPSGKVLVLQSHW
B5: Fc-tagged human NKG2D (Fc fusion)
chain: IWSAVFLNSLFNQEVQIPLTESYCGPCPKNWICYKNNCYQFFDESKNWYESQASCMSQNASLLKVYSKEDQDLLKLVKSYHWMGLVHIPTNGSWQWEDGSILSPNLLTIIEMQKGDCALYASSFKGYIENCSTPNTYICMQRTV
B6: human ULBP6-02 extracellular domain (residues R26-G218) (ligand)
chain: RRDDPHSLCYDITVIPKFRPGPRWCAVQGQVDEKTFLHYDCGNKTVTPVSPLGKKLNVTMAWKAQNPVLREVVDILTEQLLDIQLENYTPKEPLTLQARMSCEQKAEGHSSGSWQFSIDGQTFLLFDSEKRMWTTVHPGARKMKEKWENDKDVAMSFHYISMGDCIGWLEDFLMGMDSTLEPSAGAPLAMSSG
modifications: glycosylation of residues N68 and N82 (in the crystal structure)
B7: human ULBP6-01 (residues G26-G218) (ligand)
chain: B6 chain with R1G, M60T, L81R, T122I
B8: human ULBP2 (ligand)
chain: GRADPHSLCYDITVIPKFRPGPRWCAVQGQVDEKTFLHYDCGNKTVTPVSPLGKKLNVTTAWKAQNPVLREVVDILTEQLRDIQLENYTPKEPLTLQARMSCEQKAEGHSSGSWQFSFDGQIFLLFDSEKRMWTTVHPGARKMKEKWENDKVVAMSFHYFSMGDCIGWLEDFLMGMDSTLEPSAGAPLAMSS

In experiment [1] the target is B5. The experiment is described as follows: SPR. In general terms: In SPR one partner is held on a chip, and binding of the other changes the refractive index at the surface.
Experiment [2] has as its target MICB. In words: SPR.

Changes are numbered by the printed parent chain.

A word on the Kd: it is a measure of binding affinity in units of concentration. On to B1, for which the Kd in experiment [1] worked out at 138 nM. Same read-out and setting: next, B2: 93.4 nM; B3: 836 nM; B4: 83.2 nM. In turn, B5 registered a Kd in experiment [2] of 105 nM. Take B6: binding in experiment [1] was characterised by a dissociation constant (Kd) of 2.69 nM. Same read-out and setting: under B7 stands 42.7 nM; under B8, 262 nM.

Values taken from article PMC11927390 (2025).
